The values that follow are results of earlier work, collected in paper PMC8257665.

What is called pKa is the negative logarithm of the acid dissociation constant.

One data set addresses Glu109 (UniProt position 109, PLLICEFYLIL). Conditions: ground (dark) state GPR implied; not stated explicitly.
The target of the next data set is Glu143 (UniProt position 143, FGYMGEAGIMA). Conditions: ground (dark) state GPR implied; not stated explicitly.

Turning to “Green-light absorbing proteorhodopsin (GPR) (uncultured marine gamma-proteobacterium (the article says only 'marine γ-proteobacteria'))”, the values for the pKa with Glu109 and with Glu143 were greater than 8.5 and greater than 9.0, respectively.
